Results: patent publication US20240059769A1 (BIOLOJIC DESIGN, published 2024)
Changes are numbered by the printed parent chain. Numbers in names are those of the source. Like-named read-outs stand apart in the source and are kept apart here.

What was measured:
[1] = biological target: T1, recombinant human IL-13 (human, UniProt P35225 35-146); assay: SPR
T1 construct: also called rh-IL-13; hIL-13

[2] = biological target: T2, human TSLP (human, UniProt Q969D9 29-159); assay: SPR
T2 construct: also called hTSLP; rhTSLP

[3] = biological target: T1, recombinant human IL-13; assay: cell-based or functional assay
[4] = biological target: T2, human TSLP; assay: SPR (Biacore T200), antibody captured, cytokine analyte 30-0.153 nM
Procedure: CMS chip was coated with human antibody capture kit to obtain 3000-5000 RU and the antibody, served as the capture, was injected at a flow rate of 10 ul/ml to obtain 250-350 RU.

[5] = biological target: T1, recombinant human IL-13; assay: cell-based or functional assay; remark: listed apart in the source
[6] = biological target: T2, human TSLP; assay: cell-based or functional assay
[7] = biological target: T3, recombinant cynomolgus monkey IL-13 (cynomolgus monkey, UniProt Q0PW92 21-132); assay: SPR
T3 construct: bought; also called rc-IL-13; cIL-13
T3 sequence (Q0PW92 entry or part of it): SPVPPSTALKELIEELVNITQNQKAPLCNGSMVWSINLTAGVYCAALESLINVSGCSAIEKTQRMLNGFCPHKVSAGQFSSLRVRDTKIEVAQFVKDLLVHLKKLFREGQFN

[8] = biological target: T4, hTSLP-His (human, UniProt Q969D9 29-159, limits assumed); assay: cell-based or functional assay
[9] = biological target: T5, cynomolgus monkey (cyno) TSLP (cynomolgus monkey, UniProt A0A7N9CAT7 29-159); assay: SPR
T5 construct: also called cTSLP; cynomolgus TSLP
T5 sequence (A0A7N9CAT7 entry or part of it): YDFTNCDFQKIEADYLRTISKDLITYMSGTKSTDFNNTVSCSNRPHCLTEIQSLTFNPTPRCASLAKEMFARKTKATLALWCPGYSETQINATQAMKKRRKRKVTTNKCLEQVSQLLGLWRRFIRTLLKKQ

[10] = biological target: T4, hTSLP-His; assay: competition ELISA, 7 nM TSLP-His pre-incubated with antibody; competitor Tezepelumab coated
[11] = biological target: T2, human TSLP; assay: SPR (Biacore T200), antibody captured, hTSLP as analyte 0.231-5.926 nM
[12] = biological target: T4, hTSLP-His; assay: competition ELISA: antibody titrated and pre-incubated with 7 nM TSLP-His, then on a plate coated with 33.001 (Tezepelumab), anti-His detection; row head on the sheet reads EC50, unit from the axis
[13] = biological target: T1, recombinant human IL-13; assay: SPR; remark: listed apart in the source
[14] = biological target: T2, human TSLP; assay: SPR; remark: listed apart in the source
[15] = biological target: T1, recombinant human IL-13; assay: SPR (Biacore T200), antibody captured, hIL-13 as analyte 0.35-8.89 nM
[16] = biological target: T4, hTSLP-His; assay: cell-based or functional assay; remark: listed apart in the source
[17] = biological target: T5, cynomolgus monkey (cyno) TSLP; assay: SPR; remark: listed apart in the source
[18] = biological target: T3, recombinant cynomolgus monkey IL-13; assay: SPR; remark: listed apart in the source
[19] = biological target: T2, human TSLP; assay: SPR (ProteOn XPR36), antibody captured, hTSLP analyte 3.2-0.2 nM
[20] = biological target: T1, recombinant human IL-13; assay: SPR, steady state, antibody captured, hIL-13 analyte
Procedure: Subsequent to a cycle, the analyte and tested antibody were stripped from the chip and new tested Ab was loaded on the chip as described above. KD was determined at a steady state condition.

[21] = biological target: T4, hTSLP-His; assay: competition ELISA: antibody titrated and pre-incubated with 7 nM TSLP-His, then on a plate coated with 33.001 (Tezepelumab), anti-His detection; row head on the sheet reads EC50, unit from the axis; remark: listed apart in the source
[22] = biological target: T1, recombinant human IL-13; assay: SPR (Biacore T200), antibody captured, hIL-13 as analyte 0.35-5.93 nM
[23] = biological target: T2, human TSLP; assay: SPR (Biacore T200), antibody captured, hTSLP as analyte 0.231-5.926 nM; remark: listed apart in the source
[24] = biological target: T1, recombinant human IL-13; assay: SPR; remark: listed apart in the source
[25] = biological target: T2, human TSLP; assay: SPR; remark: listed apart in the source
[26] = biological target: T2, human TSLP; assay: SPR (Biacore), antibody captured on anti-human Fc chip, hTSLP as analyte, multi-cycle, 1:1 binding model
[27] = biological target: T6, hIL-13-His (human, UniProt P35225 35-146); assay: SPR (Biacore), antibody captured on anti-human Fc chip, hIL-13 as analyte, multi-cycle, 1:1 binding model
T6 construct: bought; also called human IL-13 (Acro Biosystems IL3-H52H4); not shown: His tag
T6 sequence (P35225 35-146 limits assumed): as the sequence (Q0PW92 entry or part of it) above, with S1G, K10R, V42M, N67S, R83H, V100L counted along it

[28] = biological target: T6, hIL-13-His; assay: as above; remark: listed apart in the source
T6 sequence (P35225 35-146 limits assumed): as the sequence (Q0PW92 entry or part of it) above, with S1G, K10R, V42M, N67S, R83H, V100L counted along it

[29] = biological target: T6, hIL-13-His; assay: cell-based or functional assay
[30] = biological target: T2, human TSLP; assay: SPR (Biacore), antibody captured on anti-human Fc chip, hTSLP as analyte, multi-cycle, 1:1 binding model; remark: listed apart in the source

T1 sequence (P35225 35-146 limits assumed): as the sequence (Q0PW92 entry or part of it) above, with S1G, K10R, V42M, N67S, R83H, V100L counted along it

B1: BDG38.094 (antibody, V domains shown)
VH: QMQLVESGGGVVQPGRSLRLSCAASGFAFRTYGMHWVRQAPGKGLEWVAVIWDDGSNTHYADSVKGRFTITRDNSKNTLNLQMNSLRAEDTAVYYCVRAPQWYLTAEAFDLWGQGTMVTVSS
VL: SYVLTQPPSVSVAPGETASITCGGNLIGAYLVHWYQQKPGQAPLLVIYDDVDRPARIPERFSGSNSGNTATLTISRVEAGDEADYYCQVWDHNSNHMVFGGGTKLTVL
notes: IgG1
B1 gave a Kd [1] of 13.8 pM, a koff [1] of 9.36e-05 s⁻¹ and a kon [1] of 6.77e+06 M⁻¹ s⁻¹. It also gave a Kd [2] of 0.0127 pM, a koff [2] of 1.82e-07 s⁻¹ and a kon [2] of 1.44e+07 M⁻¹ s⁻¹. For the same binder, the “HEK-IL-13 [nM] (IC50, STAT6 reporter)” value [3] was 0.0487 nM, the Kd [4] was under 1 pM and the “IC50 CD23” value [5] was 172 pM. For the same binder, the “IC50 TARC” value [6] was 356 pM, the Kd [7] was 270 pM and the koff [7] was 0.006 s⁻¹. For the same binder, the kon [7] was 2.22e+07 M⁻¹ s⁻¹, the “IC50 [pM], STAT5 phosphorylation inhibition in MUTZ5 cells” value [8] was 27.2 pM and the Kd [9] was 2.75 pM. The koff [9] was 3.18e-05 s⁻¹ and the kon [9] was 1.16e+07 M⁻¹ s⁻¹.

B2: BDG38.079 (antibody, V domains shown)
VH: B1 VH with D53Y
VL: B1 VL with S19T, L26M, A29G, A55D, N93D, H96T
B2 was tested, and the IC50 [10] was 3630 pM, the “HEK-IL-13 [nM] (IC50, STAT6 reporter)” value [3] was 0.0253 nM and the Kd [11] was 2.21 pM. For the same binder, the koff [11] was 3.27e-05 s⁻¹, the kon [11] was 1.48e+07 M⁻¹ s⁻¹ and the IC50 [12] was 3630 pM. The Kd [13] was 31.7 pM, the koff [13] was 0.000385 s⁻¹ and the kon [13] was 1.22e+07 M⁻¹ s⁻¹. The Kd [14] was 2.21 pM, the koff [14] was 3.27e-05 s⁻¹ and the kon [14] was 1.48e+07 M⁻¹ s⁻¹. The “IC50 CD23” value [5] was 71.8 pM, the “IC50 TARC” value [6] was 1960 pM and the Kd [15] was 31.7 pM. The koff [15] was 0.000385 s⁻¹, the kon [15] was 1.22e+07 M⁻¹ s⁻¹ and the “IC50, pSTAT5 in MUTZ-5 cell line” value [16] was about 13 pM. The “IC50 [pM], STAT5 phosphorylation inhibition in MUTZ5 cells” value [8] was 21.8 pM, the Kd [17] was 3.97 pM and the koff [17] was 4.08e-05 s⁻¹. It also gave a kon [17] of 1.03e+07 M⁻¹ s⁻¹, a Kd [18] of 901 pM and a koff [18] of 0.0141 s⁻¹. It also gave a kon [18] of 1.56e+07 M⁻¹ s⁻¹.

B3: BDG33.004 (antibody, V domains shown)
VH: B1 VH with A28T, D53Y, T58K, V97A, Y103M, T105V
VL: SYVLTQPPSVSVAPGQTARITCGGNLIGSKLVHWYQQKPGQAPVLVVYDDSDRPSRIPERFSGSNSGNTATLTISRVEAGDEADYYCQVWDSSSDHVVFGGGTKLTVL
notes: human IgG1, lambda light chain; also called BGD33.004; Clone C6 (as IgG1)
In the case of B3, the Kd [19] is reported as 3330 pM, the koff [19] is reported as 0.00114 s⁻¹ and the kon [19] is reported as 344000 M⁻¹ s⁻¹. For the same binder, the Kd [20] was 57400 pM.

B4: BDG38.074 (antibody, V domains shown)
VH: B1 VH
VL: B1 VL with E16Q, S19T, L26M, I47V, A55N, S94T, N95D, H96K
notes: also called BDG38.74
With B4 the IC50 [21] was 3660 pM, the IC50 [10] was 3660 pM and the “HEK-IL-13 [nM] (IC50, STAT6 reporter)” value [3] was 0.0241 nM. It also gave a Kd [22] of 29.5 pM, a koff [22] of 0.000249 s⁻¹ and a kon [22] of 8.43e+06 M⁻¹ s⁻¹. For the same binder, the Kd [23] was 3.34 pM, the koff [23] was 5.05e-05 s⁻¹ and the kon [23] was 1.51e+07 M⁻¹ s⁻¹. The Kd [13] was 29.5 pM, the koff [13] was 0.000249 s⁻¹ and the kon [13] was 8.43e+06 M⁻¹ s⁻¹. It also gave a Kd [14] of 3.34 pM, a koff [14] of 5.05e-05 s⁻¹ and a kon [14] of 1.51e+07 M⁻¹ s⁻¹. The “IC50 CD23” value [5] was 158 pM, the “IC50 TARC” value [6] was 2770 pM and the “IC50, pSTAT5 in MUTZ-5 cell line” value [16] was about 35 pM. For the same binder, the “IC50 [pM], STAT5 phosphorylation inhibition in MUTZ5 cells” value [8] was 46.7 pM, the Kd [17] was 4.16 pM and the koff [17] was 4.6e-05 s⁻¹. The kon [17] was 1.11e+07 M⁻¹ s⁻¹, the Kd [18] was 733 pM and the koff [18] was 0.00644 s⁻¹. It also gave a kon [18] of 8.78e+06 M⁻¹ s⁻¹.

B5: BDG33.003 (antibody, V domains shown)
VH: B1 VH with A28T, D53Y, T58K, V97A, Y103E, L111I
VL: B3 VL with R56L, H96G
notes: also called BGD33.003; Clone C2 (as IgG1)
In the case of B5, the Kd [19] is reported as 4500 pM, the koff [19] is reported as 0.00129 s⁻¹ and the kon [19] is reported as 287000 M⁻¹ s⁻¹. It also gave a Kd [20] of 21600 pM.

B6: BDG38.138 (antibody, human IgG1, lambda, L234A L235A)
heavy: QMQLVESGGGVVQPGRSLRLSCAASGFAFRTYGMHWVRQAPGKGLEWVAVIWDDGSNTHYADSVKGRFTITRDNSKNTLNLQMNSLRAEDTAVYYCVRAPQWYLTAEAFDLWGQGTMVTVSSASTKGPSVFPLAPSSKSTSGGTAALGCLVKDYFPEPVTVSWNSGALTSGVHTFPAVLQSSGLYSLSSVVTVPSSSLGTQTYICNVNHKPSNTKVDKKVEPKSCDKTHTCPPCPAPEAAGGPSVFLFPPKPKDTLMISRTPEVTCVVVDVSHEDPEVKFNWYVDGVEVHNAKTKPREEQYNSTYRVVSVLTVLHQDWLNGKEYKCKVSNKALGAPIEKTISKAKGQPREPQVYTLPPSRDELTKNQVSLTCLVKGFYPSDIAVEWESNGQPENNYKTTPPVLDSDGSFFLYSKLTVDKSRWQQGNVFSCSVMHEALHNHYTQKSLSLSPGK
light: SYVLTQPPSVSVAPGETASITCGGNMIGGYLVHWYQQKPGQAPVLVIYDDVDRPSRIPERFSGSNSGNTATLTISRVEAGDEADYYCQVWDHNSNHMVFGGGTKLTVLGQPKAAPSVTLFPPSSEELQANKATLVCLISDFYPGAVTVAWKADSSPVKAGVETTTPSKQSNNKYAASSYLSLTPEQWKSHRSYSCQVTHEGSTVEKTVAPTECS
notes: human IgG1 L234A/L235A/P329G (LALAPG); also called hIgG1 LALAPG; hIgG1 LALA-PG
With B6 the “HEK-IL-13 [nM] (IC50, STAT6 reporter)” value [3] was 0.0286 nM, the Kd [24] was 13.4 pM and the koff [24] was 0.00016 s⁻¹. It also gave a kon [24] of 1.19e+07 M⁻¹ s⁻¹, a Kd [25] of 2.85 pM and a koff [25] of 4.28e-05 s⁻¹. The kon [25] was 1.5e+07 M⁻¹ s⁻¹, the “IC50 CD23” value [5] was 164 pM and the “IC50 TARC” value [6] was 2360 pM. For the same binder, the Kd [26] was 6.61 pM, the koff [26] was 0.000212 s⁻¹ and the kon [26] was 3.2e+07 M⁻¹ s⁻¹. It also gave a Kd [7] of 849 pM, a koff [7] of 0.00653 s⁻¹ and a kon [7] of 7.7e+06 M⁻¹ s⁻¹. For the same binder, the “IC50 [pM], STAT5 phosphorylation inhibition in MUTZ5 cells” value [8] was 45.2 pM, the Kd [27] was 52.3 pM and the koff [27] was 0.000455 s⁻¹. It also gave a kon [27] of 8.7e+06 M⁻¹ s⁻¹, a Kd [9] of 1.35 pM and a koff [9] of 1.85e-05 s⁻¹. It also gave a kon [9] of 1.37e+07 M⁻¹ s⁻¹.

B7: BDG38.145 (antibody, human IgG1, lambda, L234A L235A)
heavy: not shown
light: B6 light
notes: human IgG1 L234A/L235A (LALA); same VH/VL as BDG38.138; also called BSG38.145; hIgG1 LALA
With B7 the Kd [28] was 87.9 pM, the koff [28] was 0.000323 s⁻¹ and the kon [28] was 3.67e+06 M⁻¹ s⁻¹. The “IC50, CD23 expression on monocytes (hPBMC, 0.7 nM IL-13)” value [29] was 380 pM, the Kd [30] was 7.79 pM and the koff [30] was 0.0002 s⁻¹. It also gave a kon [30] of 2.57e+07 M⁻¹ s⁻¹.
